Test results: the nanobody polyreactivity screen of Harvey et al. (2022)

Test: yeast display, Sf9 membrane polyspecificity reagent, FACS + sequencing; frameworks hold sequencing errors
Procedure, shortened: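 After 36–48 hours of galactose induction, yeast (Saccharomyces cerevisiae BJ5465) displaying a synthetic nanobody library were stained at 4 °C for 1 hour with 10% biotinylated, detergent-solubilized Sf9 membrane reagent. Streptavidin microbeads enriched the stained cells before FACS sorting into low and high (top ~1%) gates on anti-HA and streptavidin fluorescence. Each clone's polyreactivity label reflects its gate of origin.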

| Sequence | polyreactivity (PSR sort gate) |
| --- | --- |
| QVQLVESGGGLVQAGGSLRLSCAASGRIFAQNAMGWYRPAPGKERELVAAISWGGGGTYYADSVKGRFTISRDNAKNTVYLQMNSLKPEDTAVYYCAADSPGFGAWDRYEYWGQGTQVTVSS | low polyreactivity |
| QVQLVESGGGLVQAGGSLRLSCAASGRIFARNAMGSYRQAPGKERELVATIRVGGGSTYYADSVKGRFTISRDNAKNTVYLQMNSLKPEDTAVYYCAVRQLYSYPGDRRGYYWGQGTQVTVSS | low polyreactivity |
| QVQLVESGGGLVQAGGSLRLSCAASGRIFARYVMGWYRQAPGKERELVAAISPSGSRTYYADSVKGRFTISRDNAKNTVYLQMNSLKPEDTAVYYCAATGVYTKNPRGMDYWGQGTQVTVSS | high polyreactivity |
| QVQLVESGGGLVQAGGSLRLSCAASGRIFASKAMGWYRQAPGKERELVAAITTTGGSTYYADSVKGRFTISRDNAKNTVYLQMNSLKPEDTAVYYCASRAIPRVRRYGSMNYWGQGTQVTVSS | high polyreactivity |
| QVQLVESGGGLVQAGGSLRLSCAASGRIFASYAMGWYRQAPGKERELVAAISAGGGSRTYYADSVKGRFTISRDNAKNTVYLQMNSLKPEDTAVYYCNTANSWQRQYYYWGQGTQVTVSS | high polyreactivity |
| QVQLVESGGGLVQAGGSLRLSCAASGRIFASYAMGWYRQAPGKERELVAAISLSGGSTYYADSVKGRFTISRDNAKNTVYLQMNSLKPEDTAVYYCNARAIGWRIYDYWGQGTQVTVSS | high polyreactivity |
| QVQLVESGGGLVQAGGSLRLSCAASGRIFASYGMGWYRQAPGKETELVATINSSGGSTYYADSVKGRFTISRDNAKNTVYLQLKSLKPEDTAVYYSNARHGYYKYGYWGQGTQVTVSS | low polyreactivity |
| QVQLVESGGGLVQAGGSLRLSCAASGRIFATNAMGWDRPAPGKERELVATITRSAGRTYYADSVKGRFTISRDNAKNTVYFQMNSLKPEDTAVYYCAASYWDTEPGYREYDYWGQGTQVTVSS | low polyreactivity |
| QVQLVESGGGLVQAGGSLRLSCAASGRIFAVNAMGWYRQAPGTERELVAAITNVASTKYADSVKGRFTISRDNAKNTVYLQMNSLKQEDTAVYYCNADLSQEDWKMDYWGQGTQVTVSS | low polyreactivity |
| QVQLVESGGGLVQAGGSLRLSCAASGRIFAVYAMGWYRQAAGKERELVAAITSTGSTNYADSVKGRFTISRDNAKNTVYLQMNSLKPEDTAVYYCAKRRHSSWLRYNYWGQGTQVTVSS | low polyreactivity |
| QVQLVESGGGLVQAGGSLRLSCAASGRIFAWNDMGWYRQAPGKERELVAAITSGGSTYYADSVKGRFTISRDNAKNTVYLQMNSLKPEDTAVYYCAADRVRRNDKLAYDYWGQGTQVTVSS | low polyreactivity |
| QVQLVESGGGLVQAGGSLRLSCAASGRIFAYKAMGWYRQEPGKERELVAAISWSGSSTYYADSVKGRFTISRDNAKNTVYLQMNSLKPEDTAVYYCAATPWYYYSTSYAYYFWGQGTQVTVSS | high polyreactivity |
| QVQLVESGGGLVQAGGSLRLSCAASGRIFAYNAMGWYRQAPGKERELVAAISSGGNTYYADSVKGRFTISRDNAKNTVYLQMNSLKPEDTAVYYCNAGVGWHRYYSNYDFWGQGTQVTVSS | low polyreactivity |
| QVQLVESGGGLVQAGGSLRLSCAASGRIFAYYAMGWYREAAGKERELVAAITTNGGGTYYADSVKGRFTISRDNAKNTVYLQMNSLKPEHTAVYYSNADKQRSSIFDYWGQGTQVTVSS | low polyreactivity |
| QVQLVESGGGLVQAGGSLRLSCAASGRIFAYYAMGWYRQAPGKERELVAAISGGGGSTYYADSVKGRFTISRDNAKNTVYLQMNSLKPEDTAVYFCAAKSSRYDYYYWGHGTQVTVSS | high polyreactivity |
| QVQLVESGGGLVQAGGSLRLSCAASGRIFAYYAMGWYRQAPGKERELVAAITTNGGGTYYADSVKGRFTISRDNAKNTFYLQMNSLKPEDTGVYYCNAVKQRSSIFDYWGQGTQVTVSS | low polyreactivity |
| QVQLVESGGGLVQAGGSLRLSCAASGRIFAYYAMGWYRQPPGKERELVAAISRSGVSTYYADSVKGRFTISRDNAKNTVYLQMNSLKPEDTAVYYCAKTLSPEGVPYDYWGQGTQVTVSS | low polyreactivity |
